According to article PMC4912689, “The Extracellular Surface of the GLP-1 Receptor Is a Molecular Trigger for Biased Agonism” (Cell, 2016):

B1: unnamed (parent)
chain 1: HSQGTFTSDYSKYLDSRRAQDFVQWLMNTKRNRNNIA
chain 2: RPQGATVSLWETVQKWREYRRQCQRSLTEDPPPATDLFCNRTFDEYACWPDGEPGSFVNVSCPWYLPWASSVPQGHVYRFCTAEGLWLQKDNSSLPWRDLSECEESKRGERSSPEEQLLFLYIIYTVGYALSFSALVIASAILLGFRHLHCTRNYIHLNLFASFILRALSVFIKDAALKWMYSTAAQQHQWDGLLSYQDSLSCRLVFLLMQYCVAANYYWLLVEGVYLYTLLAFSVLSEQWIFRLYVSIGWGVPLLFVVPWGIVKYLYEDEGCWTRNSNMNYWLIIRLPILFAIGVNFLIFVRVICIVVSKLKANLMCKTDIKCRLAKSTLTLIPLLGTHEVIFAFVMDEHARGTLRFIKLFTELSFTSFQGLMVAILYCFVNNEVQLEFRKSWERWRLEHLHIQRDSSMKPLKCPTSSLSSGATAGSSMYTATCQASCS

Variants of: B1
Test: radioligand inhibition binding (competition with 125I-exendin-4(9-39))
Conditions: read off a plot

Row | Variant | log10 ratio
1 | chain 2 RPQGATVSLWETVQKWREYRRQCQRSLTEDPPPATDLFCNRTFDEYACWPDGEPGSFVNVSCPWYLPWASSVPQGHVYRFCTAEGLWLQKDNSSLPWRDLSECEESKRGERSSPEEQLLFLYIIYTVGYALSFSALVIASAILLGFRHLHCTRNYIHLNLFASFILRALSVFIKDAALKWMYSTAAQQHQWDGLLSYQASLSCRLVFLLMQYCVAANYYWLLVEGVYLYTLLAFSVLSEQWIFRLYVSIGWGVPLLFVVPWGIVKYLYEDEGCWTRNSNMNYWLIIRLPILFAIGVNFLIFVRVICIVVSKLKANLMCKTDIKCRLAKSTLTLIPLLGTHEVIFAFVMDEHARGTLRFIKLFTELSFTSFQGLMVAILYCFVNNEVQLEFRKSWERWRLEHLHIQRDSSMKPLKCPTSSLSSGATAGSSMYTATCQASCS [chain 2 D199A] | -0.25 ΔpKi
2 | chain 2 RPQGATVSLWETVQKWREYRRQCQRSLTEDPPPATDLFCNRTFDEYACWPDGEPGSFVNVSCPWYLPWASSVPQGHVYRFCTAEGLWLQKDNSSLPWRDLSECEESKRGERSSPEEQLLFLYIIYTVGYALSFSALVIASAILLGFRHLHCTRNYIHLNLFASFILRALSVFIKDAALKWMYSTAAQQHQWDGLLSYQDSLSCRLVFLLMQYCVAANYYWLLVEGVYLYTLLAFSVLSEQWIFRLYVSIGWGVPLLFVVPWGIVKYLYEAEGCWTRNSNMNYWLIIRLPILFAIGVNFLIFVRVICIVVSKLKANLMCKTDIKCRLAKSTLTLIPLLGTHEVIFAFVMDEHARGTLRFIKLFTELSFTSFQGLMVAILYCFVNNEVQLEFRKSWERWRLEHLHIQRDSSMKPLKCPTSSLSSGATAGSSMYTATCQASCS [chain 2 D270A] | -1 ΔpKi
3 | chain 2 RPQGATVSLWETVQKWREYRRQCQRSLTEDPPPATDLFCNRTFDEYACWPDGEPGSFVNVSCPWYLPWASSVPQGHVYRFCTAEGLWLQKDNSSLPWRDLSECEESKRGERSSPEEQLLFLYIIYTVGYALSFSALVIASAILLGFRHLHCTRNYIHLNLFASFILRALSVFIKDAALKWMYSTAAQQHQWDGLLSYQDSLSCRLVFLLMQYCVAANYYWLLVEGVYLYTLLAFSVLSEQWIFRLYVSIGWGVPLLFVVPWGIVKYLYADEGCWTRNSNMNYWLIIRLPILFAIGVNFLIFVRVICIVVSKLKANLMCKTDIKCRLAKSTLTLIPLLGTHEVIFAFVMDEHARGTLRFIKLFTELSFTSFQGLMVAILYCFVNNEVQLEFRKSWERWRLEHLHIQRDSSMKPLKCPTSSLSSGATAGSSMYTATCQASCS [chain 2 E269A] | -1.3 ΔpKi
4 | chain 2 RPQGATVSLWETVQKWREYRRQCQRSLTEDPPPATDLFCNRTFDEYACWPDGEPGSFVNVSCPWYLPWASSVPQGHVYRFCTAEGLWLQKDNSSLPWRDLSECEESKRGERSSPEEQLLFLYIIYTVGYALSFSALVIASAILLGFRHLHCTRNYIHLNLFASFILRALSVFIKDAALKWMYSTAAQQHQWDGLLSYQDSLSCRLVFLLMQYCVAANYYWLLVEGVYLYTLLAFSVLSEQWIFRLYVSIGWGVPLLFVVPWGIVKYLYEDEGCWTRNSNMNYWLIIRLPILFAIGVNFLIFVRVICIVVSKLKANLMCKTDIKCRLAKSTLTLIPLLGTHEVIFAFVMAEHARGTLRFIKLFTELSFTSFQGLMVAILYCFVNNEVQLEFRKSWERWRLEHLHIQRDSSMKPLKCPTSSLSSGATAGSSMYTATCQASCS [chain 2 D349A] | -0.3 ΔpKi
5 | chain 2 RPQGATVSLWETVQKWREYRRQCQRSLTEDPPPATDLFCNRTFDEYACWPDGEPGSFVNVSCPWYLPWASSVPQGHVYRFCTAEGLWLQKDNSSLPWRDLSECEESKRGERSSPEEQLLFLYIIYTVGYALSFSALVIASAILLGFRHLHCTRNYIHLNLFASFILRALSVFIKDAALKWMYSTAAQQHQWDGLLSYQDSLSCRLVFLLMQYCVAANYYWLLVEGVYLYTLLAFSVLSEQWIFRLYVSIGWGVPLLFVVPWGIVKYLYEDAGCWTRNSNMNYWLIIRLPILFAIGVNFLIFVRVICIVVSKLKANLMCKTDIKCRLAKSTLTLIPLLGTHEVIFAFVMDEHARGTLRFIKLFTELSFTSFQGLMVAILYCFVNNEVQLEFRKSWERWRLEHLHIQRDSSMKPLKCPTSSLSSGATAGSSMYTATCQASCS [chain 2 E271A] | -0.15 ΔpKi
6 | chain 2 RPQGATVSLWETVQKWREYRRQCQRSLTEDPPPATDLFCNRTFDEYACWPDGEPGSFVNVSCPWYLPWASSVPQGHVYRFCTAEGLWLQKDNSSLPWRDLSECEESKRGERSSPEEQLLFLYIIYTVGYALSFSALVIASAILLGFRHLHCTRNYIHLNLFASFILRALSVFIKDAALKWMYSTAAQQHQWDGLLSYQDSLSCRLVFLLMQYCVAANYYWLLVEGVYLYTLLAFSVLSEQWIFRLYVSIGWGVPLLFVVPWGIVKYLYEDEGAWTRNSNMNYWLIIRLPILFAIGVNFLIFVRVICIVVSKLKANLMCKTDIKCRLAKSTLTLIPLLGTHEVIFAFVMDEHARGTLRFIKLFTELSFTSFQGLMVAILYCFVNNEVQLEFRKSWERWRLEHLHIQRDSSMKPLKCPTSSLSSGATAGSSMYTATCQASCS [chain 2 C273A] | 0.4 ΔpKi
7 | chain 2 RPQGATVSLWETVQKWREYRRQCQRSLTEDPPPATDLFCNRTFDEYACWPDGEPGSFVNVSCPWYLPWASSVPQGHVYRFCTAEGLWLQKDNSSLPWRDLSECEESKRGERSSPEEQLLFLYIIYTVGYALSFSALVIASAILLGFRHLHCTRNYIHLNLFASFILRALSVFIKDAALKWMYSTAAQQHQWAGLLSYQDSLSCRLVFLLMQYCVAANYYWLLVEGVYLYTLLAFSVLSEQWIFRLYVSIGWGVPLLFVVPWGIVKYLYEDEGCWTRNSNMNYWLIIRLPILFAIGVNFLIFVRVICIVVSKLKANLMCKTDIKCRLAKSTLTLIPLLGTHEVIFAFVMDEHARGTLRFIKLFTELSFTSFQGLMVAILYCFVNNEVQLEFRKSWERWRLEHLHIQRDSSMKPLKCPTSSLSSGATAGSSMYTATCQASCS [chain 2 D192A] | -0.2 ΔpKi
